Structures can show the parent of a compound that is named as a salt.
Key:
[1] = Phase 1 study of OMP-21M18: blood pressure readings and anti-hypertensive treatment of individual subjects
Description: For study days in which an infusion of OMP-21M18 was administered, blood pressure readings include a reading pre-infusion, 15 minutes after the start of infusion, at the end of infusion, and 15 minutes post-infusion.
OMP-21M18 was administered at dosages of 0.5 mg/kg weekly to three subjects, 1.0 mg/kg weekly to three subjects, 2.5 mg/kg every two weeks to six subjects, 2.5 mg/kg weekly to six subjects, 5.0 mg/kg every two weeks to six subjects, 5.0 mg/kg weekly to three subjects, and 10.0 mg/kg every two weeks to six subjects. According to the study protocol, the administration period was nine weeks, unless a subject was removed from the study due to a dose limiting toxicity. Baseline blood pressure readings were taken just prior to administration of the first dosage. Toxicities were assessed using the National Institute of Health's Common Toxicity Criteria for Adverse Events (CTCAE) version 3.0. During the study, subjects were assessed for dose limiting toxicities from the time of the first dose through 7 days after administration of the fourth dose (Days 0-28).

[2] = Phase 1 dose escalation study of OMP-21M18 in subjects with solid tumors: incidence of hypertension (CTCAE v3.0); format: in vivo; conditions: for Grade 3 Hypertension / Grade 4 Hypertension: number of patients
Description: Thirty-three subjects with advanced solid tumors initiated treatment with OMP-21M18 in a Phase I clinical trial. The trial was designed to determine the maximum tolerated dose (MTD), safety, pharmacokinetics, immunogenicity, and preliminary efficacy of OMP-21M18 in subjects with advanced solid tumors. All subjects had histologically confirmed malignancies that were metastatic or unresectable and had received extensive treatment for their cancer.
OMP-21M18 was prepared for use at a concentration of 10 mg/mL in a solution of 50 mM histidine, 100 mM sodium chloride, 45 mM sucrose, and 0.01% (w/v) Polysorbate 20, with the pH adjusted to 6.0. Once prepared, OMP-21M18 was stored as 20 mL aliquots in 25-cc vials.

[3] = Subject 1 on OMP-21M18 0.5 mg/kg weekly, Lotensin, Norvasc and hydrochlorothiazide together
[4] = Subject 2 on OMP-21M18 1 mg/kg, labetalol 400 bid, lasix 20 mg qd, Norvasc 10 mg qd, Prinzide 20/25 mg together, 7 additional OMP-21M18 doses without hypertension
[5] = 2.5 mg/kg every 2 weeks, 6 patients
[6] = 5.0 mg/kg every 2 weeks, 6 patients
[7] = 10.0 mg/kg every 2 weeks, 6 patients, one patient had both Grade 3 and Grade 4

Molecule: NS(=O)(=O)c1cc2c(cc1Cl)NCNS2(=O)=O [hydrochlorothiazide, reference compound]
- blood pressure control by anti-hypertensive regimen [1, 3]: adequate blood pressure control

Molecule: CCOC(=O)[C@H](CCc1ccccc1)N[C@H]1CCc2ccccc2N(CC(=O)O)C1=O [Lotensin®, benazepril hydrochloride, reference compound]
- blood pressure control by anti-hypertensive regimen [1, 3]: adequate blood pressure control

Molecule: NS(=O)(=O)c1cc(C(=O)O)c(NCc2ccco2)cc1Cl [lasix, reference compound]
- blood pressure control by anti-hypertensive regimen [1, 4]: controlled their blood pressure

Molecule: CCOC(=O)C1=C(COCCN)NC(C)=C(C(=O)OC)C1c1ccccc1Cl (centres unmarked) [Norvasc®, amlodipine besylate, reference compound]
- blood pressure control by anti-hypertensive regimen [1, 3]: adequate blood pressure control
- blood pressure control by anti-hypertensive regimen [1, 4]: controlled their blood pressure
- adverse event leading to discontinuation of anti-hypertensive ([1]; Subject 3 on OMP-21M18 2.5 mg/kg, Norvasc 5 mg qd, discontinued Day 141): ankle edema

Molecule: CC(CCc1ccccc1)NCC(O)c1ccc(O)c(C(N)=O)c1 (centres unmarked) [labetalol, reference compound]
- blood pressure control by anti-hypertensive regimen [1, 4]: controlled their blood pressure

B1: OMP-21M18: humanized anti-DLL4 antibody encoded by the plasmid with ATCC deposit number PTA-8425 (antibody, V domains shown)
VH: QVQLVQSGAEVKKPGASVKISCKASGYSFTAYYIHWVKQAPGQGLEWIGYISSYNGATNYNQKFKGRVTFTTDTSTSTAYMELRSLRSDDTAVYYCARDYDYDVGMDYWGQGTLVTVSS
VL: DIVMTQSPDSLAVSLGERATISCRASESVDNYGISFMKWFQQKPGQPPKLLIYAASNQGSGVPDRFSGSGSGTDFTLTISSLQAEDVAVYYCQQSKEVPWTFGGGTKVEIK
modifications: Heavy chain variable region, H7; Light chain variable region
- blood pressure, highest reported ([1]; Subject 1, 0.5 mg/kg weekly, Day 21, 15 minutes post infusion, baseline 135/73, on Lotensin 30 mg qd): 199/92
- blood pressure ([1]; Subject 1, 0.5 mg/kg weekly, Day 24, baseline 135/73, on Lotensin 30 mg qd): 183/89
- blood pressure ([1]; Subject 1, 0.5 mg/kg weekly, Day 32, on Lotensin 40 mg qd and Norvasc 5 mg qd): 177/88
- blood pressure ([1]; Subject 1, 0.5 mg/kg weekly, Day 41, on Lotensin 40 mg qd and Norvasc 10 mg qd): 160/85
- blood pressure ([1]; Subject 2, 1 mg/kg weekly, Day 7 (high), baseline 141/85, on lisinopril 10 mg qd): 177/93
- blood pressure ([1]; Subject 2, 1 mg/kg weekly, Day 14, on lisinopril plus irbesartan/hydrochlorothiazide, study drug dose not administered): 173/110
- blood pressure ([1]; Subject 2, 1 mg/kg weekly, Day 21, on labetalol 100 mg bid and Prinzide 10/12.5 qd): 164/112
- blood pressure ([1]; Subject 2, 1 mg/kg weekly, Day 55, on labetalol 400 mg bid and Prinzide 10/12.5 qd): 163/91
- blood pressure ([1]; Subject 2, 1 mg/kg, Day 84, on labetalol 400 mg bid and Prinzide 20/25 qd, OMP-21M18 dose not administered): 167/102
- blood pressure ([1]; Subject 3, 2.5 mg/kg weekly, Day 21, baseline 96/54, no prior history of hypertension): 159/90
- blood pressure ([1]; Subject 3, 2.5 mg/kg, Day 112, on Dyazide 1 po qd): 152/77
- blood pressure ([1]; Subject 3, 2.5 mg/kg, Day 146, on lisinopril 20 mg bid): 143/85
- blood pressure ([1]; Subject 4, 2.5 mg/kg cohort, Day 14, baseline 118/73, on dyazide and lisinopril, increase not related to study drug according to the Investigator): 153/79
- blood pressure ([1]; Subject 5, 10 mg/kg once every other week, Day 9, baseline 130/90): 160/90
- blood pressure ([1]; Subject 5, 10 mg/kg once every other week, Day 26, at home, on lisinopril 5 mg qd): 170/90
- blood pressure ([1]; Subject 5, 10 mg/kg once every other week, Day 62, on lisinopril 10 mg bid): 190/120
- blood pressure ([1]; Subject 5, 10 mg/kg once every other week, Day 65, on lozartan 25 mg, bisoprolol 2.5 mg, amlodipine 5 mg qd): 170/106
- blood pressure ([1]; Subject 6, 10 mg/kg cohort, Day 28, single reading, on enalapril): 150/90
- blood pressure ([1]; Subject 6, 10 mg/kg cohort, subsequent reading after Day 28, on enalapril): 150/90
- blood pressure ([1]; Subject 6, 10 mg/kg cohort, subsequent to start of enalapril 10 mg bid on Day 9, baseline 125/90): 140/90
- blood pressure ([1]; Subject 7, 10 mg/kg once every other week, Day 9, baseline 135/90, on enalapril 5 mg bid): 170/90
- blood pressure ([1]; Subject 7, 10 mg/kg once every other week, Day 56, on enalapril 10 mg bid): 155/90
- blood pressure ([1]; Subject 8, 10 mg/kg once every other week, Day 17, home reading, baseline 140/90, captopril 25 mg as needed): 160/90
- blood pressure ([1]; Subject 8, 10 mg/kg once every other week, Day 22, in the clinic, on captopril 12.5 qd): 130/80
- blood pressure ([1]; Subject 8, 10 mg/kg once every other week, Days 23-28, at home, on captopril 12.5 qd): 150/90
- blood pressure ([1]; Subject 9, 10 mg/kg once every other week, Day 7, on nifedipine 20 mg qd): 130/80
- blood pressure ([1]; Subject 9, 10 mg/kg once every other week, Day 74, on nifedipine 20 mg qd, then discontinued): 115/75
- Total Incidence of Hypertension ([2]; 0.5 mg/kg weekly, 3 patients): 1/3
- Grade 3 Hypertension ([2]; 0.5 mg/kg weekly, 3 patients): 1
- Grade 4 Hypertension ([2]; 0.5 mg/kg weekly, 3 patients): 0
- Total Incidence of Hypertension ([2]; 1.0 mg/kg weekly, 3 patients): 1/3
- Grade 3 Hypertension ([2]; 1.0 mg/kg weekly, 3 patients): 1
- Grade 4 Hypertension ([2]; 1.0 mg/kg weekly, 3 patients): 0
- Total Incidence of Hypertension [2, 5]: 1/6
- Grade 3 Hypertension [2, 5]: 1
- Grade 4 Hypertension [2, 5]: 0
- Total Incidence of Hypertension ([2]; 2.5 mg/kg weekly, 6 patients): 2/6
- Grade 3 Hypertension ([2]; 2.5 mg/kg weekly, 6 patients): 2
- Grade 4 Hypertension ([2]; 2.5 mg/kg weekly, 6 patients): 0
- Total Incidence of Hypertension [2, 6]: 1/3
- Grade 3 Hypertension [2, 6]: 1
- Grade 4 Hypertension [2, 6]: 0
- Total Incidence of Hypertension ([2]; 5.0 mg/kg weekly, 3 patients): 0/3
- Grade 3 Hypertension ([2]; 5.0 mg/kg weekly, 3 patients): 0
- Grade 4 Hypertension ([2]; 5.0 mg/kg weekly, 3 patients): 0
- subjects who experienced Grade 3 or Grade 4 hypertension ([2]; 10.0 mg/kg dose level): 6 of 6
- Total Incidence of Hypertension ([2]; 10.0 mg/kg every 2 weeks, 6 patients): 6/6
- Grade 3 Hypertension [2, 7]: 6
- Grade 4 Hypertension [2, 7]: 1
- subjects whose hypertension was labeled grade three ([2]; of the twelve subjects with hypertension, asymptomatic, controlled with oral anti-hypertensive, treatment continued): eleven
- subjects for whom hypertension was reported during the course of therapy ([2]; of thirty-three subjects, all dose cohorts): twelve
- patients with hypertension reported ([2]; thirty-three subjects, all dose cohorts): 36%
